From patent US20180339059A1 (DINGFU BIOTARGET, published 2018) come the findings set out here.

Like-named read-outs stand apart in the source and are kept apart here.

Assay [1] concerns the target T1, hOX40-muFc (human; mouse, UniProt P43489 29-216).
T1 construct: range 1-216; Expressed in HEK293, purified on Protein A; also called recombinant human OX40; not shown: mouse IgG1-Fc (muFc) domain, residue 98 to residue 324 of P01868
T1 sequence (looked up): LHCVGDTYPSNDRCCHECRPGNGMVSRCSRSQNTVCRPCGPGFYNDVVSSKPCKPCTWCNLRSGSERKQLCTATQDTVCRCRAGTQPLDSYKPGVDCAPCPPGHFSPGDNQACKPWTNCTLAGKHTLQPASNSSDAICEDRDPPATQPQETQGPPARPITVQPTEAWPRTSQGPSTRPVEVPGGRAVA
Description: ELISA, hOX40-muFc coated at 2 µg/ml, goat anti-human IgG-HRP; column C of the drawn 4-P fit table y=(A-D)/(1+(x/C)^B)+D; the axis prints no unit, ng/ml is from paragraph 210. How it is done:
(§1) hOX40-muFc was diluted to 2 μg/ml with coating buffer (50 mM Na₂CO₃, NaHCO₃ pH 9.6), 100 μL/well, 4° C. overnight. After washing, blocking was performed using 3% BSA-PBS for 1 h at 37° C. The anti-hOX40 antibodies were diluted respectively from 2000 ng/ml and was diluted 2-fold in a total of 11 concentrations, with the diluent (1% BSA-PBS) as a control, and incubated at 37° C. for 2 h. Goat anti-human IgG-HRP conjugated was added and incubated for 1 h at 37° C. Soluble one-component TMB substrate developer solution is added, and the developing was performed in dark at room temperature for 5-10 min. 2N H₂SO₄ 50 μL/well was added to terminate the color development reaction. The OD of the obtained solution was determined at 450 nm-650 nm on MD SpectraMax Plus 384 microplate reader and SoftMaxPro v5.4 was used for processing data, making graphs and analysis. […] It can be seen from FIG. 5 and FIG. 6 that all the above variants of anti-OX40 21 # mAb can bind to OX40 and the affinity of the in vitro affinity-matured anti-OX40 21 # VHnew-L80 mAb and anti-OX40 21#H96-L80 mAb increased approximately two times compared to anti-OX40 21# mAb.
Background: An ELISA detects its analyte on a solid surface through an enzyme-linked reagent.

Assay [2] concerns the target T1, hOX40-muFc. Description: ELISA, hOX40-muFc coated at 2 µg/ml, goat anti-human IgG-HRP. The procedure: as §1
Assay [3] has as its target T1, hOX40-muFc. Description: SPR, BIAcore X100; antibody captured by anti-human Fc on CM5 chip, OX40-muFc as analyte. How it is done:
(§2) The binding kinetics of anti-hOX40 antibody to recombinant human OX40 was measured by surface plasmon resonance (SRP) method using a BIAcore X100 instrument. Anti-human Fc antibody (no cross-identification against the mouse Fc) was conjugated on CM5 chip, the test antibody was diluted to 5 nM with running buffer and captured as a ligand by the anti-human Fc antibody on the CM5 chip. […] The injection time is 180 s, the dissociation time is 1800 s and the regeneration time is 60 s. The running buffer is HBS-EP+, and the regeneration buffer is 10 mM glycine-HCl (pH 2.0). The association rate (kₒₙ) and dissociation rate (koff) were calculated using a simple one-to-one Languir binding model (BIAcore Evaluation Software version 3.2). The equilibrium dissociation constant (kD) is calculated as the ratio koff/kₒₙ. It can be seen from Table 3 that the affinity of the affinity-matured anti-OX40 21 # H96-L80 mAb is increased approximately two times.

Assay [4] deals with T1, hOX40-muFc. Description: SPR, BIAcore X100; antibody captured by anti-human Fc on CM5 chip, OX40-muFc as analyte, 1:1 model. How it is done:
as §2

Assay [5] deals with T1, hOX40-muFc. Description: ELISA, hOX40-muFc coated at 2 µg/ml, goat anti-human IgG-HRP; column C of the drawn 4-P fit table y=(A-D)/(1+(x/C)^B)+D; the axis prints no unit, ng/ml is from paragraph 210. How it is done: as §1
The source holds these as a separate data set.

Assay [6] has as its target T1, hOX40-muFc. Described as above. The procedure:
as §1
This is another data set of the same source.

B1: anti-OX40 21#H65 mAb (antibody, IgG4, V domains shown)
VH: QVQLQQSGPGLVKPSQTLSLTCAISGDSVSSNSVSWDWIRQSPSRGLEWLGRTYYRSKWYNEYAVSVENRITINPDTSKNQFSLQLNSVTPEDTAIYFCVRNNYFFDLWGRGTLVTVSS
VL: EIVLTQSPATLSLSPGERATLSCRASQSVSSYLAWYQQKPGQAPRLLIYDASDRATGIPARFSGSGSGTDFTLTISSLEPEDFAVYYCQLRSNWPPGYTFGQGTKVEIK
notes: Formatted as IgG according to Embodiment 3 (IgG4); not shown: human immunoglobulin gamma4 (IgG4) constant region, P01861; human immunoglobulin kappa light chain constant region, P01834
Molecule B1 showed an EC50 in assay [1] of 0.0609 mg/L.

B2: anti-OX40 21#H96-L80 mAb (antibody, V domains shown)
VH: QVQLQQSGPGLVKPSQTLSLTCAISGDSVSSNSVSWDWIRQSPSRGLEWLGRTYYRSKWYNEYAVSVESRITINPDTSKNQFSLQLNSVTPEDTAIYFCVRNDYFFDLWGRGTLVTVSS
VL: EIVLTQSPATLSLSPGERATLSCRASQSVGSYLAWYQQKPGQAPRLLIYDASNRATGIPARFSGSGSGTDFTLTISSLEPEDFAVYYCQQRSNWPPGYTFGQGTKVEIK
notes: Formatted as IgG according to Embodiment 3 (IgG4); also called H96-L80 IgG4; not shown: human immunoglobulin gamma4 (IgG4) constant region, P01861; human immunoglobulin kappa light chain constant region, P01834
As for B2, the “fold increase of affinity compared to anti-OX40 21# mAb” value in assay [2] is about 2 times. Also, the “fold increase of affinity (reference not given; O21 mAb by Table 3)” value in assay [3] was about 2 times. In assay [4], the affinity, expressed as Kd, was 7.9 nM; the koff is 0.000237 s⁻¹; the kon is 30000 M⁻¹ s⁻¹. In assay [5], this molecule yielded an EC50 of 0.0154 mg/L.

B3: anti-OX40 21#VHnew-L80 mAb (antibody, IgG4, V domains shown)
VH: QVQLQQSGPGLVKPSQTLSLTCAISGDSVSSNGVSWDWIRQSPSRGLEWLGRTYYRSKWYNEYAVSVENRITINPDTSKNQFSLQLNSVTPEDTAIYFCVRNDYFFDLWGRGTLVTVSS
VL: EIVLTQSPATLSLSPGERATLSCRASQSVGSYLAWYQQKPGQAPRLLIYDASNRATGIPARFSGSGSGTDFTLTISSLEPEDFAVYYCQQRSNWPPGYTFGQGTKVEIK
notes: as for B1
In the case of B3, in assay [2], the “fold increase of affinity compared to anti-OX40 21# mAb” value was about 2 times. In assay [4], this molecule showed an equilibrium dissociation constant (Kd) of 10.3 nM, a koff of 0.000342 s⁻¹ and a kon of 33300 M⁻¹ s⁻¹. Also, the EC50 in assay [5] is 0.0134 mg/L.

B4: anti-OX40 21#H28H33 mAb (antibody, IgG4, V domains shown)
VH: QVQLQQSGPGLVKPSQTLSLTCAISGDNVSSNGVSWDWIRQSPSRGLEWLGRTYYRSKWYNEYAVSVESRITINPDTSKNQFSLQLNSVTPEDTAIYFCVRNNYFFDLWGRGTLVTVSS
VL: EIVLTQSPATLSLSPGERATLSCRASQSVSSYLAWYQQKPGQAPRLLIYDASDRATGIPARFSGSGSGTDFTLTISSLEPEDFAVYYCQLRSNWPPGYTFGQGTKVEIK
notes: Formatted as IgG 'according to the method in Embodiment 3' (IgG4); not shown: human immunoglobulin gamma4 (IgG4) constant region, P01861; human immunoglobulin kappa light chain constant region, P01834
B4 came in with an EC50 in assay [1] of 0.0432 mg/L.

B5: O21 scFv (scFv)
scFv: QVQLQQSGPGLVKPSQTLSLTCAISGDSVSSNSVSWDWIRQSPSRGLEWLGRTYYRSKWYNEYAVSVESRITINPDTSKNQFSLQLNSVTPEDTAIYFCVRNNYFFDLWGRGTLVTVSSGGGGSGGGGSGGGGSEIVLTQSPATLSLSPGERATLSCRASQSVSSYLAWYQQKPGQAPRLLIYDASDRATGIPARFSGSGSGTDFTLTISSLEPEDFAVYYCQLRSNWPPGYTFGQGTKVEIK
notes: Purified as scFv fused with human IgG1-Fc; also called anti-OX40 21# scFv; not shown: human IgG1-Fc (hFc) domain, residues 104-330 of P01857
Take B5: in assay [6], the EC50 was 0.00949 mg/L.

By EC50 is commonly meant the concentration that produces a half-maximal response. A word on the Kd: it is the concentration at which binding is half-saturated. High values mean lower affinity, low ones higher affinity. In general, koff refers to the rate constant with which the complex falls apart. Usually kon stands for the second-order rate constant of association. Read a low kon as slow association.
